# Laboratory results: PMC8754647, “A minimal motif for sequence recognition by mitochondrial transcription factor A (TFAM)”
# T1: TFAM (UniProt Q00059 43-246)
# T1 sequence: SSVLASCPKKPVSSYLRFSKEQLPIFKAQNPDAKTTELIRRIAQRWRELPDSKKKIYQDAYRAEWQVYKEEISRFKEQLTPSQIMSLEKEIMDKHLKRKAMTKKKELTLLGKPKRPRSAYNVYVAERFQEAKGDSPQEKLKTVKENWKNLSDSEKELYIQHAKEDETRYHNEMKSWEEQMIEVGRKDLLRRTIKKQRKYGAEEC
# B1: DNA2GG (dsDNA)
# DNA 1: CTGAAGCCAGTTACCTTTGAAAAAAGAGTTGGTAGCTCTTGATCCAGGAATTCAACCACCGCTGGTAGCGGTGGTTTTTTTATTTGCAAGCAGCAGATTA
# DNA 2: TAATCTGCTGCTTGCAAATAAAAAAACCACCGCTACCAGCGGTGGTTGAATTCCTGGATCAAGAGCTACCAACTCTTTTTTCAAAGGTAACTGGCTTCAG
# B2: LSP_B (dsDNA)
# DNA 1: AATTGTCAGTGGGGGGTTGATT
# DNA 2: AATCAACCCCCCACTGACAATT
# B3: DNAGG (dsDNA)
# DNA 1: AAAAAGAACCATTTGGATACATAGGTAT
# DNA 2: ATACCTATGTATCCAAATGGTTCTTTTT
# B4: DNAAA (dsDNA)
# DNA 1: AAAAAGAATCATTTGGATATATAGGTAT
# DNA 2: ATACCTATATATCCAAATGATTCTTTTT
# B5: NS2 (dsDNA)
# DNA 1: ATCGGAAAGATAATCGAGAATC
# DNA 2: GATTCTCGATTATCTTTCCGAT
# Tests used:
# [1] = target: T1, TFAM; experiment: EcoRI cleavage protection; 10 mM MgCl2, 50 mM NaCl; EMSA: 10 mM HEPES pH 8.0, 500 mM NaCl, 2 mM DTT, 130 ug/ml BSA, 5% glycerol, 100 nM DNA, 30 min on ice then 10 min RT; FP: 10 mM HEPES pH 8.0, 150-400 mM NaCl; conditions: protein: recombinant; tags: His-MBP N-terminal, removed by TEV; blunt
# [2] = target: T1, TFAM; experiment: X-ray crystallography; 2.7 A; EMSA: 10 mM HEPES pH 8.0, 500 mM NaCl, 2 mM DTT, 130 ug/ml BSA, 5% glycerol, 100 nM DNA, 30 min on ice then 10 min RT; FP: 10 mM HEPES pH 8.0, 150-400 mM NaCl; conditions: protein: recombinant; tags: His-MBP N-terminal, removed by TEV
# [3] = target: T1, TFAM; experiment: EMSA; 500 mM NaCl; apparent Kd; EMSA: 10 mM HEPES pH 8.0, 500 mM NaCl, 2 mM DTT, 130 ug/ml BSA, 5% glycerol, 100 nM DNA, 30 min on ice then 10 min RT; FP: 10 mM HEPES pH 8.0, 150-400 mM NaCl; conditions: protein: recombinant; tags: His-MBP N-terminal, removed by TEV; label: 5'-Cy3 on strand 1 (EMSA); 6-FAM (FP); blunt
# [4] = target: T1, TFAM; experiment: fluorescence polarization; 150 mM NaCl; EMSA: 10 mM HEPES pH 8.0, 500 mM NaCl, 2 mM DTT, 130 ug/ml BSA, 5% glycerol, 100 nM DNA, 30 min on ice then 10 min RT; FP: 10 mM HEPES pH 8.0, 150-400 mM NaCl; conditions: protein: recombinant; tags: His-MBP N-terminal, removed by TEV; label: 5'-Cy3 on strand 1 (EMSA); 6-FAM (FP); blunt
# [5] = target: T1, TFAM; experiment: fluorescence polarization; 200 mM NaCl; EMSA: 10 mM HEPES pH 8.0, 500 mM NaCl, 2 mM DTT, 130 ug/ml BSA, 5% glycerol, 100 nM DNA, 30 min on ice then 10 min RT; FP: 10 mM HEPES pH 8.0, 150-400 mM NaCl; conditions: protein: recombinant; tags: His-MBP N-terminal, removed by TEV; label: 5'-Cy3 on strand 1 (EMSA); 6-FAM (FP); blunt
# [6] = target: T1, TFAM; experiment: fluorescence polarization; 250 mM NaCl; EMSA: 10 mM HEPES pH 8.0, 500 mM NaCl, 2 mM DTT, 130 ug/ml BSA, 5% glycerol, 100 nM DNA, 30 min on ice then 10 min RT; FP: 10 mM HEPES pH 8.0, 150-400 mM NaCl; conditions: protein: recombinant; tags: His-MBP N-terminal, removed by TEV; label: 5'-Cy3 on strand 1 (EMSA); 6-FAM (FP); blunt
# [7] = target: T1, TFAM; experiment: fluorescence polarization; 300 mM NaCl; EMSA: 10 mM HEPES pH 8.0, 500 mM NaCl, 2 mM DTT, 130 ug/ml BSA, 5% glycerol, 100 nM DNA, 30 min on ice then 10 min RT; FP: 10 mM HEPES pH 8.0, 150-400 mM NaCl; conditions: protein: recombinant; tags: His-MBP N-terminal, removed by TEV; label: 5'-Cy3 on strand 1 (EMSA); 6-FAM (FP); blunt
# [8] = target: T1, TFAM; experiment: fluorescence polarization; 350 mM NaCl; EMSA: 10 mM HEPES pH 8.0, 500 mM NaCl, 2 mM DTT, 130 ug/ml BSA, 5% glycerol, 100 nM DNA, 30 min on ice then 10 min RT; FP: 10 mM HEPES pH 8.0, 150-400 mM NaCl; conditions: protein: recombinant; tags: His-MBP N-terminal, removed by TEV; label: 5'-Cy3 on strand 1 (EMSA); 6-FAM (FP); blunt
# [9] = target: T1, TFAM; experiment: X-ray crystallography; 2.84 A; one TFAM bridges two DNA molecules; EMSA: 10 mM HEPES pH 8.0, 500 mM NaCl, 2 mM DTT, 130 ug/ml BSA, 5% glycerol, 100 nM DNA, 30 min on ice then 10 min RT; FP: 10 mM HEPES pH 8.0, 150-400 mM NaCl; conditions: protein: recombinant; tags: His-MBP N-terminal, removed by TEV; 2 DNA molecules bridged per TFAM; ends stacked
Binder,Kd [4] [nM],Kd [5] [nM],Kd [6] [nM],Kd [7] [nM],Kd [8] [nM],further results
B1,–,–,–,–,–,binding result [1]: binds
B2,–,–,–,–,–,binding result [2]: binds
B3,13.5 ± 0.1,55.5 ± 6,259 ± 48.2,1210 ± 113,5180 ± 502,Kd [3]: 86.1 ± 14.3 nM
B4,12 ± 1.5,79 ± 1.4,287 ± 15.7,877 ± 38.5,3850 ± 425,–
B5,–,–,–,–,–,binding result [9]: binds
